The labels stand for the following.
B1: 367_D10 (antibody, V domains shown)
VH: EVQLLESGGGLVQPGGSLRLSCAASGFTFDSYGMNWVRQAPGKGLEWVSNINYNGGYTSYADSVKGRFTISRDNSKNTLYLQMNSLRAEDTAVYYCARSANWHDTALDYWGQGTLVTVSS
VL: DIQMTQSPSSLSASVGDRVTITCRASQSIISYLNWYQQKPGKAPKLVIYAATSRASGVPSRFSGSGSGTDFTLTISSLQPEDFATYYCQQSYDTPLTFGGGTKVEIK
B2: 368_A01 (antibody, V domains shown)
VH: B1 VH with D30S
VL: B1 VL with V47L, A55H, T94N
B3: 368_B07 (antibody, V domains shown)
VH: B1 VH with D30S, S31D, G33S, T58K
VL: B1 VL with I30V, V47L, R54L, D93S, T94S
B4: 367_E11 (antibody, V domains shown)
VH: B1 VH with N50S, G55S, T58K, S59G, A106H
VL: B1 VL with I30V, L33V, A55H
B5: 367_F03 (antibody, V domains shown)
VH: B1 VH with D30S, G33S, S49A, N50G, G55S, T58K
VL: B1 VL with I30L, L33V, R54L, Y92D
B6: 367_F11 (antibody, V domains shown)
VH: B1 VH with D30S, G33S, S49A, N50G, G55S, S59G, A106H
VL: not shown
B7: 367_H11 (antibody, V domains shown)
VH: B1 VH with D30S, S49A, N50G, T58K, S59G
VL: B1 VL with L33V, D93N, T94S
B8: 367_F07 (antibody, V domains shown)
VH: B1 VH with N35H, S49A, S59G
VL: B1 VL with L33V, V47L, D93E
B9: 368_B06 (antibody, V domains shown)
VH: B1 VH with N35H, N50G, G55S
VL: not shown
B10: 367_E06 (antibody, V domains shown)
VH: B1 VH with G33S, N50S, G55S, T58K, S59G, A106H
VL: not shown
B11: 367_G05 (antibody, V domains shown)
VH: B1 VH with D30S, S31D, S49A
VL: B1 VL with I30V, R54L
B12: 368_A05 (antibody, V domains shown)
VH: B1 VH with D30S, G33S, S49A, N50G, G55S, S59G
VL: B1 VL with I30V, T94S
B13: 368_C05 (antibody, V domains shown)
VH: B1 VH with N50G, G55S
VL: B1 VL with I30L, Y92D, D93S, T94N
B14: 368_B01 (antibody, V domains shown)
VH: B1 VH with D30S, N50G, G55S, T58K
VL: B1 VL with I30S, V47L, D93E
B15: 367_G06 (antibody, V domains shown)
VH: B1 VH with D30S, N50G, G55S, T58K, A106H
VL: B1 VL with I30L, S31T, L33V, V47L, A51T, R54L, A55H
B16: 367_E09 (antibody, V domains shown)
VH: B1 VH with D30S, S31D, S49A, N50S, G55S, T58K, S59G
VL: B1 VL with I30L, A51T, D93E
B17: 367_G10 (antibody, V domains shown)
VH: B1 VH with S31D, N50G
VL: B1 VL with L33V, V47L, T94S
B18: 367_H06 (antibody, V domains shown)
VH: B1 VH with D30S, S59G, A106H
VL: B1 VL with S31T, V47L
B19: 367_E04 (antibody, V domains shown)
VH: B1 VH with D30S, S31D, G33S, N50S, T58K, S59G, A106H
VL: B1 VL with I30L, V47L, D93E, T94S
B20: 367_E01 (antibody, V domains shown)
VH: B1 VH with D30S, S49A, N50G, T58K
VL: B1 VL with I30L, L33V, V47L, A51T, T94L
B21: 368_A09 (antibody, V domains shown)
VH: B1 VH with G33S, N50G, A106H
VL: B1 VL with I30L, L33V, V47L, A51V, T94S
B22: 368_A07 (antibody, V domains shown)
VH: B1 VH with D30S, G33S, S49A, N50G, G55S, A106H
VL: B1 VL with I30L, S31T, A51T, Y92N, D93E, T94L

Data on 22 molecules can be found in patent publication US20210380703A1 (RIGEL PHARMACEUTICALS, published 2021).

Substitutions are numbered along the chain they refer to.
Note: test concentration or dose not given here.

Mouse ACVR2A, sequence (P27038 20-135 limits assumed): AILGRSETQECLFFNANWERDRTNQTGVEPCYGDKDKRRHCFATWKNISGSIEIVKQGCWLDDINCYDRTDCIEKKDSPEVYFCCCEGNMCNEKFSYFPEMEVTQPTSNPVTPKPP

In one experiment the target is T1, Human ACVR2A (human, UniProt P27037 20-135, limits assumed).
T1 construct: also called activin receptor, type II A
T1 sequence (P27037 20-135 limits assumed): as the sequence (P27038 20-135 limits assumed) above, with R20K, I73V counted along it
Nature of the experiment: ELISA. The essentials:
(§1)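 Monoclonal antibodies were first applied to human or mouse ACVR2A, alongside biotinylated goat anti-human kappa light chain (positive control) and human Fc (negative control); binding was then determined by ELISA.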
As to B1, the optical density was determined as 2.7 OD.

Molecule B2 had an optical density of 2.99 OD.

B3 yielded an optical density of 1.91 OD.

B4 gave an optical density of 2.4 OD.

As for B5, the optical density was found to be 2.1 OD.

In the case of B6, the optical density was found to be 1.71 OD.

In turn, B7 displayed an optical density of 2.37 OD.

In the case of B8, the optical density worked out at 2.13 OD.

B9 showed an optical density of 2.06 OD.

Consider B10, for which the optical density came out at 2.02 OD.

As to B11, the optical density was found to be 2.41 OD.

Molecule B12 returned an optical density of 2.71 OD.

For the molecule B13, the optical density turned out to be 1.82 OD.

On to B14, for which the optical density is 2.61 OD.

With B15, the optical density is 2.64 OD.

As to B16, the optical density was 1.66 OD.

For B17, the optical density stood at 2.12 OD.

Molecule B18 gave an optical density of 2.69 OD.

Molecule B19 registered an optical density of 2.41 OD.

For the molecule B20, the optical density amounted to 2.55 OD.

In the case of B21, the optical density was found to be 2.51 OD.

The molecule B22 displayed an optical density of 2.11 OD.

The next experiment has as its target Mouse ACVR2A (mouse, UniProt P27038 20-135, limits assumed). Nature of the experiment: ELISA. The essentials: as §1
In general terms: ELISA stands for enzyme-linked immunosorbent assay.
The molecule B1 gave an optical density of 2.67 OD.

As to B2, the optical density was 2.9 OD.

For the molecule B3, the optical density worked out at 2.06 OD.

Regarding B4, the optical density was 2.91 OD.

Molecule B5 had an optical density of 2.39 OD.

In turn, B6 returned an optical density of 1.87 OD.

Molecule B7 displayed an optical density of 2.69 OD.

B8 yielded an optical density of 2.25 OD.

As for B9, the optical density came to 2.34 OD.

Take B10: the optical density turned out to be 2.31 OD.

The molecule B11 showed an optical density of 2.71 OD.

B12 came in with an optical density of 2.7 OD.

The molecule B13 came in with an optical density of 2.02 OD.

Molecule B14 displayed an optical density of 2.59 OD.

For B15, the optical density came to 2.81 OD.

For B16, the optical density was 1.81 OD.

For B17, the optical density is 2.32 OD.

For B18, the optical density stood at 3.08 OD.

B19 came in with an optical density of 2.57 OD.

In turn, B20 registered an optical density of 2.52 OD.

In turn, B21 gave an optical density of 2.63 OD.

Turning to B22, the optical density was found to be 2.31 OD.

In another experiment the target is T2, Goat anti-Human Kappa.
T2 construct: Positive control of the ELISA; also called biotinylated goat anti-human kappa light chain
Briefly: ELISA, positive control. The essentials: as §1
In turn, B1 yielded an optical density of 3.38 OD.

B2 displayed an optical density of 3.68 OD.

The molecule B3 yielded an optical density of 3.13 OD.

For B4, the optical density was found to be 3.61 OD.

B5: the optical density was determined as 3.45 OD.

The molecule B6 showed an optical density of 3.48 OD.

Turning to B7, the optical density came to 3.61 OD.

In turn, B8 yielded an optical density of 3.26 OD.

On to B9, for which the optical density worked out at 3.16 OD.

Regarding B10, the optical density stood at 3.48 OD.

Molecule B11 gave an optical density of 3.37 OD.

For the molecule B12, the optical density was 3.46 OD.

Take B13: the optical density was 3.36 OD.

B14 yielded an optical density of 3.71 OD.

Take B15: the optical density was 3.35 OD.

Regarding B16, the optical density worked out at 3.33 OD.

Turning to B17, the optical density was determined as 3.45 OD.

B18 returned an optical density of 3.65 OD.

B19 yielded an optical density of 3.5 OD.

In turn, B20 gave an optical density of 3.61 OD.

B21 displayed an optical density of 3.55 OD.

Turning to B22, the optical density came out at 3.65 OD.
